Measurements from US20120263651, “Single Stranded DNA Aptamers Binding NF-kB/RelA” (Board of Regents, The University of Texas System, published 2012).

B1: P028F4 (ssDNA)
DNA: GGGTAACCTTGAGTCACGAATTCAAGCGGGACAGGAGAAACACGGCATGTCAGCGAAGGTACCCAACTTACAGCTTCTGG

Key:
[1] = biological target: GST-RelA(1-313) (NF-kB p65, DNA binding and IkBa interactive domain) (UniProt Q04206 Q04206:1-313); assay: filter; variable region alone sufficient for binding; data not shown; competition and direct binding; conditions: tags: GST; chain copies: 2
Experimental: Binding Studies: (i) Nitrocellulose filter binding assay: Filter binding assays were performed as described (22). Initially, 70 mer oligonucleotides were commercially synthesized (IDT) to include the proximal 20 bases of each flanking primer sequence and the 30 base variable region. DNAs were 5′ end-labeled with ³²P-ATP using T4-PNK (New England Biolabs) and purified by glass bead binding using a MERMAID kit (MP Biomedicals LLC). Protein and labeled aptamer were incubated in ABB and filtered through 25 mm nitrocellulose filters. The bound material was counted in a Beckman Liquid Scintillation counter. For competition studies, binding reactions (100 μL) in ABB were incubated at RT for 20 min with 100 fold excess (10 picomoles) of unlabeled competitor DNAs, followed by the addition of 0.1 picomole of ³²P-labeled KB55 probe. After 30 min of incubation, reactions were filtered and counted. The KB55 sequence is […] (SEQ ID NO: 3) and self anneals to form a duplex. Upper and lower strands of IL8KB are […] (SEQ ID NO: 4) and […] (SEQ ID NO: 5), respectively.
Isolation of RelA(1-313) binding single stranded aptamer: Purified recombinant GST-RelA(1-313), encoding the DNA binding and IκBα interactive domain, was used to screen for high affinity ssDNA aptamers by repeated rounds of in vitro binding and enrichment. […]

[2] = biological target: endogenous RelA in A549 cells (Homo sapiens, UniProt Q04206 Q04206:1-551); assay: cell_activity; 4 uM transfected aptamer; control induction 5-fold (Gro-beta) and nearly 7-fold (TNFAIP3)
Experimental: A549 cells transfected with nothing (−), 4 μM P028A1 or P028F4 aptamers were stimulated in the absence (Con) or presence of TNF. (1 h, 30 ng/ml). Total RNA was extracted and subjected to Q-RT-PCR for Gro-β (top panel) and TNFAIP3/A20 (bottom panel). Data are normalized to GAPDH and expressed as fold change relative to uninfected control. Each bar is mean±SD of triplicate determination. * p<0.05 and (4B) ChIP assay. A549 cells transfected with nothing (−), P028A1 (4 μM) or P028F4 (4 μM) were stimulated in the absence (Con) or presence of TNF (1 h, 30 ng/ml). Two-step ChIP was preformed using pre-immune IgG (IgG), or anti-RelA as the primary Abs. Immunoprecipitated DNA was subjected to quantitative PCR using primers for Groβ (top) or TNFAIP3/A20 promoters (bottom) as indicated. Data are shown as fold increase in signal relative to unstimulated A549 cells (X, ±SD of technical replicates). The study was repeated twice with similar results;
Aptamer P028F4 inhibits TNFα-induced endogenous NF-κB dependent gene expression: Earlier studies selectively inhibiting NF-κB/RelA translocation identified Groβ and TNFAIP3/A20 as part of a TNFα inducible gene network downstream of NF-κB (3,4,39). […] Relative changes in Groβ and TNFAIP3/A20 transcripts were determined by Q-RT-PCR. […]

GST-RelA(1-313) (NF-kB p65, DNA binding and IkBa interactive domain), sequence (Q04206 1-313, one chain of several): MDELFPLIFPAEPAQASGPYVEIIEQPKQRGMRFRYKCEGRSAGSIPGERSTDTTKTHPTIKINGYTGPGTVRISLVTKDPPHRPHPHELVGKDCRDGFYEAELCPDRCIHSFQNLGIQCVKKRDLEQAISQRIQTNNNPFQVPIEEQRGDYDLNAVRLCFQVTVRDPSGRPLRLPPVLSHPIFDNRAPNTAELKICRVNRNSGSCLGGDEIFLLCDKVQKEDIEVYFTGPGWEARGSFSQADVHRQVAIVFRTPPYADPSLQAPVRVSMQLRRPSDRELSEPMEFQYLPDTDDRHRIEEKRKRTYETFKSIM
endogenous RelA in A549 cells, sequence (Q04206 whole entry, one chain of several): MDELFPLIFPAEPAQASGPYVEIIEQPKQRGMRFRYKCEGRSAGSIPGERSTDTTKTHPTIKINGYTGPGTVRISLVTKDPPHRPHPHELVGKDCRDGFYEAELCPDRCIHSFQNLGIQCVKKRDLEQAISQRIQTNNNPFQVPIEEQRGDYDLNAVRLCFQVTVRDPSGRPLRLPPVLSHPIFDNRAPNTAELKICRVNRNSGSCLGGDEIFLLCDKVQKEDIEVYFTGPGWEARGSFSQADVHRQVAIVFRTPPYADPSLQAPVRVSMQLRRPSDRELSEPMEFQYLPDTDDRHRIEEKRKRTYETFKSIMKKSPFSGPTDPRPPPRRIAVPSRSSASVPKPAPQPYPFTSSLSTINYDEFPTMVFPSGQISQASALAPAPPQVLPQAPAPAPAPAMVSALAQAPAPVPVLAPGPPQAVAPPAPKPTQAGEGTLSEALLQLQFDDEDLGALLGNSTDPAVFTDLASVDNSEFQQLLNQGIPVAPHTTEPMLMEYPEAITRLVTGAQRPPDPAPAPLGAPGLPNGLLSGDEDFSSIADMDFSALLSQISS

Binder | binding result [1] | activity [2]
GCGGGACAGGAGAAACACGGCATGTCAGCG (ssDNA) [P028F4 30-base variable region] | binds | 
B1 |  | < 2 fold induction of Gro-beta and TNFAIP3 mRNA
